Measured values: the supplement of paper PMC10065799, “High-throughput profiling of sequence recognition by tyrosine kinases and SH2 domains using bacterial peptide display” (eLife, 2023)

Tests used:
AncSZ = test: phosphorylation enrichment, bacterial display (enrichment ratio); higher = better substrate or ligand; peptides without Tyr show the background
EPHB1 = EPHB1 (UniProt P54762); test: as above
EPHB2 = EPHB2 (UniProt P29323); test: as above
FGFR1 = FGFR1 (UniProt P11362); test: as above
FGFR3 = FGFR3 (UniProt P22607); test: as above
Fer (mouse) = test: as above
Fes = Fes (UniProt P07332); test: as above
Chain of Fes (P07332 whole entry, looked up): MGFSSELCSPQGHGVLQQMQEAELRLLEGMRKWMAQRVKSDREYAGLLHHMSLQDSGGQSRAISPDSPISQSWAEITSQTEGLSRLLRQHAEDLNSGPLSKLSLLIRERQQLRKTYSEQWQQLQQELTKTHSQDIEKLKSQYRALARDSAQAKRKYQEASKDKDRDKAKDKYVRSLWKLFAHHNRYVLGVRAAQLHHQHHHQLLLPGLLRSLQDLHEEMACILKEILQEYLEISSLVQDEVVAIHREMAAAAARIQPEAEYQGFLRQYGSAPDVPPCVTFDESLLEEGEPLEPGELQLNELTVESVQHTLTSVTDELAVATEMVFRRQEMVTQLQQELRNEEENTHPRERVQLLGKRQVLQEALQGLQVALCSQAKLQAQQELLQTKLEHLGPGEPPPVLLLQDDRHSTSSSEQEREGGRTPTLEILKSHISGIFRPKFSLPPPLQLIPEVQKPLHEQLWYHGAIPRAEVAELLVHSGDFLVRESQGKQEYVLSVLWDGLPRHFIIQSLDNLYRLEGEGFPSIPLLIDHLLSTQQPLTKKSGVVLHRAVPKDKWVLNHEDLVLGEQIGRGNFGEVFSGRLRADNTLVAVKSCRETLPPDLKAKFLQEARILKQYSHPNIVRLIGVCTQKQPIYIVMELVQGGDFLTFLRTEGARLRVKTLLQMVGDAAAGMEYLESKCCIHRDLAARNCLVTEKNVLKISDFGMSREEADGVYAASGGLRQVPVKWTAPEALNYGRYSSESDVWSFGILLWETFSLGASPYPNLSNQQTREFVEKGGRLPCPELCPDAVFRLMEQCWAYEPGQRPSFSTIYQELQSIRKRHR

Fyn = Fyn (UniProt P06241); test: as above
Chain of Fyn (P06241 whole entry, looked up): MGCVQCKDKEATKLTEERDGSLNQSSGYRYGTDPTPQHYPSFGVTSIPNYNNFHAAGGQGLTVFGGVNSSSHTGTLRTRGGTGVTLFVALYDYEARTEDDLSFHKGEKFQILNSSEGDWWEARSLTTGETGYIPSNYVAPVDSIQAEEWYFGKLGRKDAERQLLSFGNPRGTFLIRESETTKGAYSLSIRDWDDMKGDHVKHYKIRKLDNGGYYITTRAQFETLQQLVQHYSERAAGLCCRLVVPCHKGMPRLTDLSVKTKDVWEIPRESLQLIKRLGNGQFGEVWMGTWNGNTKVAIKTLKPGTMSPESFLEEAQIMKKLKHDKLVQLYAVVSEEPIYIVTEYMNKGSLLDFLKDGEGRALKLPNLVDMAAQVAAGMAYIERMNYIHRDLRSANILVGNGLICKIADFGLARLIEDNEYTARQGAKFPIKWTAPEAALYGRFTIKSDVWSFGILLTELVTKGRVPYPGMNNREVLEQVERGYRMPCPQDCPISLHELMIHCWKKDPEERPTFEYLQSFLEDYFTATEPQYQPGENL

Hck = Hck (UniProt P08631); test: as above
Chain of Hck (P08631 whole entry, looked up): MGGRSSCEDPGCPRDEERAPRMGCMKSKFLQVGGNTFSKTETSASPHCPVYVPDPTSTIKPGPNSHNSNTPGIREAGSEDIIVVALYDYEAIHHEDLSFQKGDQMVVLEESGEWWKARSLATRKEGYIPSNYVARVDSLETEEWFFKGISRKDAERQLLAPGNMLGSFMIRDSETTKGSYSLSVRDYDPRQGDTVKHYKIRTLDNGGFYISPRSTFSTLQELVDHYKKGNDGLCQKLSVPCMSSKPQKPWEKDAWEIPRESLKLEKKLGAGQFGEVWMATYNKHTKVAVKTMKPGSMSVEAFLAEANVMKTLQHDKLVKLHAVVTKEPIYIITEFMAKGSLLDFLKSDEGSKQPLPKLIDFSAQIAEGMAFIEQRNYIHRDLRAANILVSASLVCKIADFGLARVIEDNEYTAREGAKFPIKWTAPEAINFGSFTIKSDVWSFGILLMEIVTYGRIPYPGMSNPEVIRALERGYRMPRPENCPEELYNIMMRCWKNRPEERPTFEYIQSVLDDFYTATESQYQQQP

Jak2 = Jak2 (UniProt O60674); test: as above
Chain of Jak2 (O60674 whole entry, looked up): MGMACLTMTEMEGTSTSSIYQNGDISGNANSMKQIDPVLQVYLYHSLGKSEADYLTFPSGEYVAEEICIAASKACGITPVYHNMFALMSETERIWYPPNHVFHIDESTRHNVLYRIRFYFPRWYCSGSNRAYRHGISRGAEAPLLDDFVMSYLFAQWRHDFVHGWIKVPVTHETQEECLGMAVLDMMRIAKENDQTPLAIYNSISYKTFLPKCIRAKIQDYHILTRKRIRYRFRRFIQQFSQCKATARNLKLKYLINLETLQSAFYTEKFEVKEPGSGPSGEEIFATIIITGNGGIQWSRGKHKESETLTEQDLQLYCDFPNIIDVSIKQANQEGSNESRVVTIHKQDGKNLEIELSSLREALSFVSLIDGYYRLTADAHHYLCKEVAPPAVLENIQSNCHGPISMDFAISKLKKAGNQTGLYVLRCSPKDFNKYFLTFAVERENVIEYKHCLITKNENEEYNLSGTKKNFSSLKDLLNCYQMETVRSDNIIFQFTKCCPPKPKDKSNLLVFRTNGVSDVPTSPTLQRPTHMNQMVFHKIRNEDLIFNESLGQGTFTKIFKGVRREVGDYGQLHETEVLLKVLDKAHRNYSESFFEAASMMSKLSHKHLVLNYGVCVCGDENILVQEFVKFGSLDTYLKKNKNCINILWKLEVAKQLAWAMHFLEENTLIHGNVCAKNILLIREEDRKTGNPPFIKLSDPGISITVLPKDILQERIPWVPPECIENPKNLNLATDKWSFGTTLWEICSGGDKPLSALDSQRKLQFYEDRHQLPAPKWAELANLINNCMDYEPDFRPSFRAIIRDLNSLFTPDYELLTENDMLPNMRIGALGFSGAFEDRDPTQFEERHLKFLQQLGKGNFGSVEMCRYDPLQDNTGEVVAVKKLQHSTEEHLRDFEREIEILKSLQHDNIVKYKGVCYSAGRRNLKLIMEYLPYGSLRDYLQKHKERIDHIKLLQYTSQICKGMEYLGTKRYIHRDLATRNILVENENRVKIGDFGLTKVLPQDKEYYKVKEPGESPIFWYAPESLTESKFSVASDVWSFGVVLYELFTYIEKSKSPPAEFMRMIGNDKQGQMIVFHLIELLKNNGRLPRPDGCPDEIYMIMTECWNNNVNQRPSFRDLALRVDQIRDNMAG

MERTK = MERTK (UniProt Q12866); test: as above
c-Abl (mouse) = test: as above
c-Src = test: as above
Grb2 SH2 = Grb2 SH2 (UniProt P62993); test: SH2 binding enrichment of the phosphorylated peptide, bacterial display (enrichment ratio); higher = better substrate or ligand; peptides without Tyr show the background
Chain of Grb2 SH2 (P62993 whole entry, looked up): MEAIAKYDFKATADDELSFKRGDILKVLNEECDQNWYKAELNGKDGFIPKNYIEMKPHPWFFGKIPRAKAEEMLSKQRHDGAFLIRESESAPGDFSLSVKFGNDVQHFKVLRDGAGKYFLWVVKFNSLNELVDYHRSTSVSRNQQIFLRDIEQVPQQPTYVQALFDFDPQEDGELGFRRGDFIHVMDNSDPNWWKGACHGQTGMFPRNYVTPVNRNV

SHP2-C SH2 = test: as above
c-Src SH2 = test: as above
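Wherever SH2 binding enrichment of the phosphorylated peptide, bacterial display is given: peptide library displayed on the E. coli surface as eCPX fusions, selected cells deep-sequenced, score is each peptide's frequency after selection divided by its frequency in the input.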
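Wherever phosphorylation enrichment, bacterial display is given: 11-residue human phosphosite peptides and single-mutation variants displayed on the E. coli surface, counted by deep sequencing, each peptide's frequency after selection divided by its frequency in the unselected input library; frequency after pTyr selection over input frequency; kinase dosed for 20-30% of maximal phosphorylation in three min.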

Chain of EPHB2 (P29323 whole entry, looked up): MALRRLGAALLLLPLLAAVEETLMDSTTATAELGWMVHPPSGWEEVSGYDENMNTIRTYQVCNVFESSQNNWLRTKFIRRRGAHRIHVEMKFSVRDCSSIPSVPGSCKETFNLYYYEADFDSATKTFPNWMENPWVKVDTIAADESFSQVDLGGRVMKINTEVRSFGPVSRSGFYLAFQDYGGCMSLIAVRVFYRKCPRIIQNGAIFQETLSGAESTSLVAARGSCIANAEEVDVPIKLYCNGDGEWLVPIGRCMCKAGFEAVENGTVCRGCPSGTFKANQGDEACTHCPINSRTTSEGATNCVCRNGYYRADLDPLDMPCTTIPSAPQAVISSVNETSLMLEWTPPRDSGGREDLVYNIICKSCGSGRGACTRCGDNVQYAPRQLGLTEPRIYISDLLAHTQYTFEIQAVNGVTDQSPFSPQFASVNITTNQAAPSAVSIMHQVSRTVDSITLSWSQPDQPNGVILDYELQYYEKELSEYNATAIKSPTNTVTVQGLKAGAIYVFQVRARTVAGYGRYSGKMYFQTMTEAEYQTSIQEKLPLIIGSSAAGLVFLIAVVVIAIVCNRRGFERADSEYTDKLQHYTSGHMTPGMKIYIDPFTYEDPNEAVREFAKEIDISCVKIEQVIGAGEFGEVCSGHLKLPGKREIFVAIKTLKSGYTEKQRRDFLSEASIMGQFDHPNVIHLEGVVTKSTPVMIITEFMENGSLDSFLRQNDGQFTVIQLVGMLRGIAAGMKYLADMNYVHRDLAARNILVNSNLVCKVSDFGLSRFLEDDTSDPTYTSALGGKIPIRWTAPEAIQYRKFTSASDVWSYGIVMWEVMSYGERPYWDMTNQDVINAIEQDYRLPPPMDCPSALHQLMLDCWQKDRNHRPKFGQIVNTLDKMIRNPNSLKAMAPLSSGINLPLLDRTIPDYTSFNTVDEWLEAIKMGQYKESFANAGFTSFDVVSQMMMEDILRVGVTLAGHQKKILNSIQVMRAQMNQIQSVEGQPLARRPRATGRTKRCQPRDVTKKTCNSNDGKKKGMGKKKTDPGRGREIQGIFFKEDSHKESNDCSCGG

Sequence	phosphorylation enrichment (AncSZ)	phosphorylation enrichment (EPHB1)	phosphorylation enrichment (EPHB2)	phosphorylation enrichment (FGFR1)	phosphorylation enrichment (FGFR3)	phosphorylation enrichment (Fer (mouse))	phosphorylation enrichment (Fes)	phosphorylation enrichment (Fyn)	phosphorylation enrichment (Hck)	phosphorylation enrichment (Jak2)	phosphorylation enrichment (MERTK)	phosphorylation enrichment (c-Abl (mouse))	phosphorylation enrichment (c-Src)	SH2 binding enrichment (Grb2 SH2)	SH2 binding enrichment (SHP2-C SH2)	SH2 binding enrichment (c-Src SH2)
VLDSHYPEDEV [C1QBP_Y188_C186S]	1.33	0.611	0.564	0.52	0.736	0.51	1.26	0.473	0.516	1.16	0.488	0.746	0.525	1.06	0.697	0.573
VLRQVYVDFEG [KMT2B_Y1707_R1705Q]	1.16	0.877	0.722	0.721	0.871	0.579	1.28	1.85	0.86	0.993	0.465	0.692	1.42	0.833	1	0.938
VMICAYLLHRG [PTEN_Y138]	1.21	0.612	0.63	0.642	0.778	0.688	1.68	0.478	0.558	1.36	0.482	1.27	0.644	1.05	0.714	0.723
VMSMNYRVGAL [BCHE_Y174_V170M]	0.767	0.578	0.592	0.485	0.573	0.438	0.878	0.462	0.447	0.715	0.416	0.686	0.484	0.719	0.775	0.461
VNYGAYINDFN [GLB1_Y488_K493N]	1	0.737	1.09	0.451	0.616	0.462	1	0.87	0.533	0.748	0.469	0.703	0.675	9.16	1.05	6.95
VPDTNYTSDEE [STK33_Y439_A437T]	1.23	0.562	0.658	0.606	0.708	0.511	1.19	0.56	0.552	1.07	0.437	0.748	0.465	1.23	0.811	0.675
VPVNGYQPVPA [ROR2_Y824]	0.859	0.554	0.391	0.55	0.517	0.52	0.748	0.382	0.422	0.416	0.382	0.439	0.413	0.91	0.634	0.691
VPVPGYTKLPE [SPRR3_Y146]	0.865	0.544	0.642	0.531	0.671	0.473	1.05	0.464	0.487	0.848	0.499	0.988	0.419	0.635	0.445	0.458
VQNIVYHTASI [CYP39A1_Y102_R103H]	0.605	0.375	0.43	0.435	0.408	0.386	0.708	0.401	0.543	0.621	0.376	0.824	0.636	0.82	4.37	1.69
VSSPKYGSNDE [TMCC2_Y473_D476N]	0.867	0.452	0.536	0.406	0.619	0.509	0.912	0.445	0.426	0.857	0.454	0.801	0.514	0.722	0.657	0.519
VTSLKYSTSPY [BRIP1_Y916]	0.751	0.52	0.498	0.487	0.467	0.451	0.655	0.523	0.516	0.6	0.493	0.537	0.542	0.754	0.42	0.43
VVTFSYKPPGN [RBL2_Y544]	0.634	0.455	0.476	0.592	0.519	0.367	0.696	0.42	0.429	0.911	0.431	0.673	0.423	0.979	0.7	0.711
WCKPLYFSCAV [MMS22L_Y28_P27L]	1.26	0.737	0.598	1.14	1.1	0.541	1.21	0.533	0.607	1.57	0.907	0.821	1.18	1.5	1.22	1.32
WNRDKYAATTT [TRIM39_Y439_G436R]	0.734	0.448	0.401	0.439	0.34	0.37	0.59	0.358	0.375	0.65	0.471	0.542	0.411	0.772	0.798	0.498
WPLKWYAPECI [ZAP70_Y506]	1.25	0.886	0.766	0.573	0.806	0.598	1.39	0.565	0.405	1.03	0.433	0.666	0.425	0.83	0.817	0.501
YEDTLYTVLHR [UNC13D_Y61_A59T]	2.9	12.2	9.31	2.08	2.09	9.1	1.41	7.58	8.16	1.39	8.84	3.32	6.38	0.761	0.525	2.26
YEEDSYSHVMA [FDPS_Y388_I391V]	1.87	0.59	0.65	1.22	1.27	1.64	1.17	0.775	0.606	0.944	0.464	0.696	0.587	0.772	0.69	2.64
YEKFLYFLPAS [DYNC2H1_Y346_H341Y]	1.5	0.764	0.644	0.57	0.91	0.581	1.31	0.868	0.827	2.7	2.16	0.89	0.938	1.05	1.19	2.21
YENGEYIVRQG [PRKG1_Y247_I249V]	1.02	0.543	0.464	0.495	0.729	0.483	0.937	0.494	0.495	0.784	0.424	0.582	0.466	32.9	1.14	8.91
YFVVEYRDQKP [MUC17_Y4332]	2.1	1.23	0.909	13.8	12.1	0.75	1.66	0.786	0.589	3.02	4.97	0.788	0.728	1.17	5.95	3.98
YLENYYDLEKD [MMP3_Y42_K45E]	1.76	5.81	3.24	7.06	5.26	0.781	1.47	4.51	1.63	1.15	0.752	0.957	2.29	0.769	0.557	0.985
YMRGMYFRMKD [PLA2G6_Y541]	0.924	0.42	0.523	0.462	0.589	0.423	0.947	0.416	0.44	1.16	0.439	0.657	0.384	1.59	1.5	1.3
YPPTHYIRRMP [SLC4A11_Y820_V824M]	0.717	0.455	0.412	0.451	0.493	0.59	0.597	0.397	0.339	0.4	0.447	0.484	0.381	0.875	0.765	0.606
YQEPVYSVAFS [TBL1X_Y509_H504Y]	5.95	18.9	26.2	6.72	5.72	17.5	4.74	12.4	11.1	0.989	12.7	29.6	8.72	0.781	0.527	2.93
YSSLGYPLPEG [ZSWIM4_Y87_P89L]	1.01	0.53	0.758	1.28	1.06	0.687	0.904	2.63	2.05	0.785	7.91	0.978	1.57	0.986	10.8	2.8
YTDPYYDYEIE [ZC3H18_Y372_A368T]	2.13	1.39	1.06	9.65	7.56	1.22	1.27	1.96	0.967	1.31	1.31	0.871	2.94	0.822	0.494	2.02
YTTIHYNYMCN [TP53_Y234_C229Y]	1.43	1.81	0.897	4.5	3.35	2.08	1.16	0.976	0.917	1.26	4.13	0.92	1.27	1	2.47	6.95
